{
  "source": "patent US20180335433A1",
  "about": "“COMPOSITIONS TARGETING PKC-THETA AND USES AND METHODS OF TREATING PKC-THETA PATHOLOGIES, ADVERSE IMMUNE RESPONSES AND DISEASES” (La Jolla Institute for Allergy and Immunology, priority 2011, published 2018)",
  "molecules": {"B1": {"name": "V3 domain: amino acid 282-379 of human PKCθ with N-terminal Myc tag, expressed from pMIG retroviral vector (protein)", "chain": "GINQKLMAEALAMIESTQQARCLRDTEQIFREGPVEIGLPCSIKNEARPPCLPTPGKREPQGISWESPLDEVDKMCHLPEPELNKERPSLQIKLKIED", "modifications": "left off: small tags and cut ends", "notes": "amino acid 282-379 of human PKCθ with N-terminal Myc tag, expressed from pMIG retroviral vector"}},
  "key": {"[1]": {"tested_on": "CD28 response element (RE/AP) reporter gene", "test": "RE/AP luciferase reporter assay in MCC-specific T hybridoma cells", "format": "cell-based", "description": "(FIG. 6A) OT-II CD4^+ T cells were infected with retrovirus expressing Myc-tagged V3 domain, V3 mutated at P330/1/4/6A (V3-4PA), or PR motif-deleted V3 (V3-ΔPR). Infected cells (green) were harvested, stimulated, and fixed. Conjugates were stained with anti-Myc plus a secondary Alexa 555-coupled antibody (orange), and anti-PKCθ plus a secondary Alexa 647-coupled antibody (red). Cells were analyzed as in FIG. 1A. (FIG. 6B) Quantitative analysis of the results shown in (FIG. 6A) from 30-50 T-APC conjugates. ** p<0.05. (FIG. 6C) MCC-specific T hybridoma cells were cotransfected with indicated vector, together with RE/AP-Luc and β-Gal reporter plasmids. Cells were stimulated and analyzed as in FIG. 1C. […] Cytokine-producing cells were analyzed by intracellular staining 8 h after restimulation. […] Normalized luciferase activity was determined in triplicates.\nThe CD28 response element (RE/AP)- or NFAT-luciferase (Luc) reporter genes have been described (Coudronniere, N. et al. Proc Natl Acad Sci USA 97, 3394-3399 (2000)). […] The cells were the lysed and Luc activity was quantitated and normalized to the activity of a cotransfected β-galactosidase (β-Gal) reporter gene.\nTo determine whether ectopic V3 expression also interfered with PKCθ-dependent TCR/CD28 signaling, the effects of V3 on activation of reporter genes and on T cell differentiation into effector Th cells were analyzed. […]"}, "[2]": {"tested_on": "Th2-mediated lung inflammation", "test": "Th2-mediated Ova-induced airway inflammation after adoptive transfer of transduced OT-II Th2 cells", "format": "in vivo, mouse", "conditions": "transferred Th2 cells, aerosolized Ova 3 consecutive days", "from_the_text": "(§1) (FIG. 7A-7D) OT-II CD4^+ T cells stimulated with anti-CD3 plus anti-CD28 mAbs and differentiated in vitro under Th2 (FIG. 7A-7C) or Th1 (FIG. 7D, 7E)-polarizing conditions were retrovitrally transduced with the same PKCθ V3 vectors as in FIG. 6. Sorted GFP^+ populations were adoptively transferred into naïve B6 mice, which were challenged with aerosolized Ova for 3 consecutive days. BAL fluid were obtained 1 d post-challenge and analyzed for total mononuclear cell infiltration (FIG. 7A, 7D) and cytokine expression using IL-4 (FIG. 7B), IL-5 (FIG. 7C) and IFN-γ (FIG. 7E) ELISA.\n(§2) CD4^+ T cells from OT-II B6 mice were isolated and cultured with plate-bound anti-CD3 (5 μg/ml), soluble anti-CD28 (2.5 μg/ml) and IL-2 (100 U/ml) under Th1 or Th2 polarizing conditions. The cells were retrovirally infected on days 2-4 and cultured for an additional 3 days. GFP^+ cells were sorted, and 1×10^6 cells were injected intravenously into naïve WT B6 mice. One day later, mice received aerosolized Ova (5 mg/ml in 20 ml PBS) for 30 min, once a day for 3 consecutive days, using ultrasonic nebulization. Mice were sacrificed 24 h after the last challenge and assessed for lung inflammation. Collection of BAL fluid and determination of cytokine levels were carried out as described (Salek-Ardakani, S. et al. J Immunol 173, 6440-6447 (2004)).\nThe above findings were extended to an in vivo antigen-specific inflammatory response in an airway inflammation model, using a T cell adoptive transfer system. Mice receiving OT-II Th2 cells transduced with an empty vector developed an inflammatory response by comparison with PBS-challenged control mice, as evidenced by a significant increase in the number of infiltrating leukocytes in the bronchoalveolar lavages (BAL) fluid (FIG. 7a) and in the levels of signature Th2 cytokines, IL-4 (FIG. 7b) and IL-5 (FIG. 7c)."}, "[3]": {"tested_on": "Th1-mediated lung inflammation", "test": "Th1-mediated Ova-induced airway inflammation after adoptive transfer of transduced Th1 effector cells", "format": "in vivo, mouse", "conditions": "transferred Th1 effector cells", "from_the_text": "as §1, §2"}},
  "data": [
    {"molecule": "B1", "values": [
      {"measurement": "inhibition of RE/AP reporter gene activity stimulated by WT PKCθ", "setting": "[1]; coexpressed at increasing levels together with WT PKCθ", "value": "inhibited in a dose-dependent manner"},
      {"measurement": "activation of RE/AP reporter gene", "setting": "[1]; expression of the V3 alone", "value": "did not activate"},
      {"measurement": "levels of Th2 cytokines (IL-4, IL-5) in BAL fluid", "setting": "[2]", "value": "to basal levels"},
      {"measurement": "levels of infiltrating cells in BAL fluid", "setting": "[2]", "value": "to basal levels"},
      {"measurement": "inhibition of the Th1 lung inflammation response (leukocyte infiltration, IFN-γ in BAL fluid)", "setting": "[3]", "value": "did not inhibit"}
    ]}
  ]
}
